System: D54-MG xenografted human glioma tumors
Assay: Brain tumor targeting after intravenous injection (D54-MG/SCID mouse model)
Assay type: in vivo
Details: tail vein injection, measured after 24 hours
Description: These experiments consisted of five research studies utilizing the […] mouse model.

125I-EGF: 125I-labeled EGF used as a control; EGF receptor is up-regulated in these tumors
Targeting of brain tumor: did not localize to the brain tumors to any appreciable extent
